Measured values published in patent US20130157929A1, “GLUCAGON ANALOGUES” (ZEALAND PHARMA A/S, published 2013).
Starred links: 1 amine or outer side, 2 acyl side, 3 side chain; linkers in the order of their positions; H or OH if unused. Non-standard residues stand in square brackets, D forms with d. Groups on a side chain read outwards from the residue. *: point of attachment. γGlu = O=C(O)[C@H](CCC(=O)[*:2])N[*:1]; Palmitoyl = CCCCCCCCCCCCCCCC(=O)*; 3Pal = N[C@@H](Cc1cccnc1)C(=O)O; Cit = NC(=O)NCCC[C@H](N)C(=O)O; hSer = N[C@@H](CCO)C(=O)O; Aib = CC(C)(N)C(=O)O

Legend:
[1] = molecular target: human glucagon-like peptide 1 receptor (GLP-1R) (human, UniProt P43220); test: cell-based or functional assay
[2] = molecular target: human glucagon receptor (glucagon-R) (human, UniProt P47871); test: cell-based or functional assay

Binder | EC50 (nM) GLP-1R, cAMP formation [1] [nM] | EC50 (nM) GluR, cAMP formation [2] [nM]
H-H[Aib][3‑(4-thiazolyl)alanyl]GTFTSDYSKYLDSK([γGlu-Palmitoyl])AAHDFVEWLLSA-NH2 [Compound 23] | 0.11 | 0.99
H-H[Aib][3‑(1,2,4-triazol-1-yl)alanyl]GTFTSDYSKYLDSK([γGlu-Palmitoyl])AAHDFVEWLLSA-NH2 [Compound 25] | 0.09 | 0.71
H-H[Aib][Cit]GTFTSDYSKYLDSK([γGlu-Palmitoyl])AAHDFVEWLLSA-NH2 (SMILES CCCCCCCCCCCCCCCC(=O)N[C@@H](CCC(=O)NCCCC[C@H](NC(=O)[C@H](CO)NC(=O)[C@H](CC(=O)O)NC(=O)[C@H](CC(C)C)NC(=O)[C@H](Cc1ccc(O)cc1)NC(=O)[C@H](CCCCN)NC(=O)[C@H](CO)NC(=O)[C@H](Cc1ccc(O)cc1)NC(=O)[C@H](CC(=O)O)NC(=O)[C@H](CO)NC(=O)[C@@H](NC(=O)[C@H](Cc1ccccc1)NC(=O)[C@@H](NC(=O)CNC(=O)[C@H](CCCNC(N)=O)NC(=O)C(C)(C)NC(=O)[C@@H](N)Cc1c[nH]cn1)[C@@H](C)O)[C@@H](C)O)C(=O)N[C@@H](C)C(=O)N[C@@H](C)C(=O)N[C@@H](Cc1c[nH]cn1)C(=O)N[C@@H](CC(=O)O)C(=O)N[C@@H](Cc1ccccc1)C(=O)N[C@H](C(=O)N[C@@H](CCC(=O)O)C(=O)N[C@@H](Cc1c[nH]c2ccccc12)C(=O)N[C@@H](CC(C)C)C(=O)N[C@@H](CC(C)C)C(=O)N[C@@H](CO)C(=O)N[C@@H](C)C(N)=O)C(C)C)C(=O)O) [Compound 21] | 1.2 | 35
H-H[Aib]HGTFTSDYSKYLDSK([γGlu-Palmitoyl])AAHDFVEWLLSA-NH2 (SMILES CCCCCCCCCCCCCCCC(=O)N[C@@H](CCC(=O)NCCCC[C@H](NC(=O)[C@H](CO)NC(=O)[C@H](CC(=O)O)NC(=O)[C@H](CC(C)C)NC(=O)[C@H](Cc1ccc(O)cc1)NC(=O)[C@H](CCCCN)NC(=O)[C@H](CO)NC(=O)[C@H](Cc1ccc(O)cc1)NC(=O)[C@H](CC(=O)O)NC(=O)[C@H](CO)NC(=O)[C@@H](NC(=O)[C@H](Cc1ccccc1)NC(=O)[C@@H](NC(=O)CNC(=O)[C@H](Cc1c[nH]cn1)NC(=O)C(C)(C)NC(=O)[C@@H](N)Cc1c[nH]cn1)[C@@H](C)O)[C@@H](C)O)C(=O)N[C@@H](C)C(=O)N[C@@H](C)C(=O)N[C@@H](Cc1c[nH]cn1)C(=O)N[C@@H](CC(=O)O)C(=O)N[C@@H](Cc1ccccc1)C(=O)N[C@H](C(=O)N[C@@H](CCC(=O)O)C(=O)N[C@@H](Cc1c[nH]c2ccccc12)C(=O)N[C@@H](CC(C)C)C(=O)N[C@@H](CC(C)C)C(=O)N[C@@H](CO)C(=O)N[C@@H](C)C(N)=O)C(C)C)C(=O)O) [Compound 1] | 0.21 | 0.26
H-H[Aib][3‑(2-furyl)alanyl]GTFTSDYSKYLDSK([γGlu-Palmitoyl])AAHDFVEWLLSA-NH2 [Compound 22] | 0.06 | 3.8
H-H[Aib][3Pal]GTFTSDYSKYLDSK([γGlu-Palmitoyl])AAHDFVEWLLSA-NH2 [Compound 24] | 0.14 | 1.04

Further lines, results first:

EC50 (nM) GLP-1R, cAMP formation [1] [nM] | EC50 (nM) GluR, cAMP formation [2] [nM] | Binder
0.27 | 1.58 | H-H[Aib][3‑(3-thienyl)alanyl]GTFTSDYSKYLDSK([γGlu-Palmitoyl])AAHDFVEWLLSA-NH2 [Compound 27]
0.05 | 0.79 | H-H[Aib][hSer]GTFTSDYSKYLDSK([γGlu-Palmitoyl])AAHDFVEWLLSA-NH2 [Compound 29]
0.11 | 4.85 | H-H[Aib][3‑(1-pyrazolyl)alanyl]GTFTSDYSKYLDSK([γGlu-Palmitoyl])AAHDFVEWLLSA-NH2 [Compound 28]
0.08 | 1.16 | H-H[Aib][3‑(2-thienyl)alanyl]GTFTSDYSKYLDSK([γGlu-Palmitoyl])AAHDFVEWLLSA-NH2 [Compound 26]
0.09 | 0.15 | H-H[Aib]HGTFTSDYSKYLESK([γGlu-Palmitoyl])AAEEFVEWLLEA-NH2 (SMILES CCCCCCCCCCCCCCCC(=O)N[C@@H](CCC(=O)NCCCC[C@H](NC(=O)[C@H](CO)NC(=O)[C@H](CCC(=O)O)NC(=O)[C@H](CC(C)C)NC(=O)[C@H](Cc1ccc(O)cc1)NC(=O)[C@H](CCCCN)NC(=O)[C@H](CO)NC(=O)[C@H](Cc1ccc(O)cc1)NC(=O)[C@H](CC(=O)O)NC(=O)[C@H](CO)NC(=O)[C@@H](NC(=O)[C@H](Cc1ccccc1)NC(=O)[C@@H](NC(=O)CNC(=O)[C@H](Cc1c[nH]cn1)NC(=O)C(C)(C)NC(=O)[C@@H](N)Cc1c[nH]cn1)[C@@H](C)O)[C@@H](C)O)C(=O)N[C@@H](C)C(=O)N[C@@H](C)C(=O)N[C@@H](CCC(=O)O)C(=O)N[C@@H](CCC(=O)O)C(=O)N[C@@H](Cc1ccccc1)C(=O)N[C@H](C(=O)N[C@@H](CCC(=O)O)C(=O)N[C@@H](Cc1c[nH]c2ccccc12)C(=O)N[C@@H](CC(C)C)C(=O)N[C@@H](CC(C)C)C(=O)N[C@@H](CCC(=O)O)C(=O)N[C@@H](C)C(N)=O)C(C)C)C(=O)O) [Compound 31]
